Results as given in PMC7588053, “Cholesterol oxidase from Rhodococcus erythropolis with high specificity toward β-cholestanol and pytosterols” (PLoS ONE, 2020).

Substrate: CC(C)CCC[C@@H](C)[C@H]1CC[C@H]2[C@@H]3CC=C4C[C@@H](O)CC[C@]4(C)[C@H]3CC[C@]12C
Test: purified protein
Assay type: biochemical, Rhodococcus erythropolis
Conditions: O2 as co-substrate, 0-1 mM cholesterol, 50 mM sodium phosphate pH 7.0, 64 mM sodium cholate, 0.34% Triton X-100, 30°C

B1: ChoRI (Rhodococcus erythropolis PR4) (protein)
chain: VPAGSSGSAGGPVSTLTPPPAFPEGIALYQQAYQNWSKEIMLDAIWTCSPKTPEDVVRLANWGHANGYTIRPRGAMHGWTPLTIVNGAPVDKVILADTTVHLTGVSVNAGGSPATVTAGPGATLDAITTALQAQGLGFANLPAPGVLTIAGCLAVDAHGAALPAEGEAHVPGQTFGSLSNLVTSLTAVVWNGSEYALETYARSDAAIKPLLTHLGRTFLTSVTLQAAPNYRMRCVSHTDIGWQELFGARGASGRTFEKFVRENGRAEAIWYPFTERPWMKVWSLAPTKPPFSREVTGPYNYIFSDNLPEPVTDMIGQINAGNPGIAPAFGQIMYATTVAGLAATFSNDLWGWSKDVQFYIRATTLRLTEGGGAVITSRANIGQVIHDFTQWFNGRMEYYRSIGQFPLNGPVEIRCCGLDQPSDVEVDSAGAPTISAMRPRPDHPEWDTAIWLNVLGVPGTPGMFAFYREMEQWMRNHYNNNDATFRPEWSKGWAFGPDKPYTDAPIITQGLPQTYRDGVPSSDNWDTANAAYNALDPHKVFSNTFLDQLLP
notes: predicted mature enzyme, Tat signal peptide removed (from Val-37), C-terminal 6xHis kept, pET-21b(+), E. coli Rosetta (DE3) pLysS; precursor 587 aa, mature 551 aa, 59,590 Da; VAO family flavoenzyme (FAD)
B1 gave a Km of 22.6 ± 0.5 µM, a Vmax of 6.4 µmol/min/mg and a kcat of 6.8 ± 0.3 s⁻¹. The kcat/Km was 300000 ± 10000 M⁻¹ s⁻¹.

B2: ChoRII (Rhodococcus erythropolis PR4) (protein)
chain: VPWGSASTIAPPPGFPSDIPLSQQAYANWSREIMLESVWTATARHSDDVVTLANWAFDNGYTVRAKGTMHGWSPLTVVPGAPSDRVLLVDTMANLNSVVVQHGTPATVTAGAGASIEAILTALEREGLGWANAPAIGELSIAGALAIGAHGATYPAVGETITPGQSYGSLSNLITEITVVAWDEGRNRYGLKTFHRSDDEITAFLTHLGRTFVTSVTLQAGENYRLRCRSFTDIPWQELFAAPGSPGRTYESFVEKSGRVEAIWFPFTQTPWLKVWTPTPVKPPESREVSGPYNYFFSDAIPEEVTTPLGMVAQGLQAATPLFGASQFGAVAAGLALTDTDDLWGWSKDVLFYLRHTTLRVVAGGGAVITKRSNIGRVVHEMTSWLNERMTHYASLGQYPVNMPFEVRLCGVDDSGEVLVDSAGVPDLSAVRPRADRQDWDTAIWMNVVSIPGTAGLPAFLREMERWMVANYSGDYATFRPEWSKGWAFTDQAAYQDDEFLTSTVPATFRAGGDGNWDFALATLDEHDPHRVFSNTFIDRVLPPS
notes: predicted mature enzyme, Tat signal peptide removed (Val-45 given, but 545 aa given would mean start at 44), C-terminal 6xHis kept, pET-21b(+), E. coli Rosetta (DE3) pLysS; precursor 588 aa, mature 59,369 Da; VAO family flavoenzyme (FAD)
In the case of B2, the Km is reported as 22.1 ± 0.3 µM, the Vmax is reported as 0.57 µmol/min/mg and the kcat is reported as 0.61 ± 0.11 s⁻¹. The kcat/Km was 30000 ± 10000 M⁻¹ s⁻¹.
